According to article PMC8065639:

Target: T1, GST-PA14_51020-His (antitoxin) (Pseudomonas aeruginosa PA14) (UniProt A0A0H2Z7N8)
T1 sequence: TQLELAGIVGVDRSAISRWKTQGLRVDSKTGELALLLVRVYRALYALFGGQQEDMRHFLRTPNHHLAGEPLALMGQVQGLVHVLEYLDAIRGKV
Experiment: EMSA

## CGGGCTGGAAGGTGGAGCGGGGAATCCGTCTGCAGGCGCCGCCTTTCTCCGATCACGAGGCTGCGCTGACCGACATCGCCGACTACCGCGCTCCCCAGGAACTGGGGAGTGCCATGCGCAGCGCCGGGGTGCAGGCATTCGAATACCGTTCGGCGCGTTGCCCGGAGCGCGGCTGCAATGTCGCCCTGTTCACGCCCGCG (double strand) [PA14_51010 coding region internal fragment]
  binding: no binding

## GTTTTTCTCTCTATCACGCCGGTCAATGCTTGCGCGTGGTTCTCTAGGTTCGACCGAATCAAGGTGTGTTTTCAGCAAAATAATGATAGTTTGTTGTAAACACACATGAGGAGGTCGTCATGAGCGCTCTCATCAAGGAACGTCCCAGCGCCGATGCTGTCCTGGCCAAGGCCGTCCTGGCCGCGCGCGAGCAATTGGGG (double strand) [PA14_51020 upstream (operon promoter) fragment]
  binding: binds
